Laboratory results as given in patent US9175313B2, “Three-dimensional structure of isoprene synthase and its use thereof for generating variants” (Danisco US Inc., priority 2009, dated 2015).
Changes are numbered by the printed parent chain. In names and notes the source's numbering stands. Entries after “also recorded” stand apart in the source; their conditions may differ.

B1: A453N: P. alba IspS variant A453N; pDW99, strain DW397, SEQ ID NO: 65 (protein)
chain: MEARRSANYEPNSWDYDYLLSSDTDESIEVYKDKAKKLEAEVRREINNEKAEFLTLLELIDNVQRLGLGYRFESDIRGALDRFVSSGGFDAVTKTSLHGTALSFRLLRQHGFEVSQEAFSGFKDQNGNFLENLKEDIKAILSLYEASFLALEGENILDEAKVFAISHLKELSEEKIGKELAEQVNHALELPLHRRTQRLEAVWSIEAYRKKEDANQVLLELAILDYNMIQSVYQRDLRETSRWWRRVGLATKLHFARDRLIESFYWAVGVAFEPQYSDCRNSVAKMFSFVTIIDDIYDVYGTLDELELFTDAVERWDVNAINDLPDYMKLCFLALYNTINEIAYDNLKDKGENILPYLTKAWADLCNAFLQEAKWLYNKSTPTFDDYFGNAWKSSSGPLQLVFAYFAVVQNIKKEEIENLQKYHDTISRPSHIFRLCNDLASASAEIARGETNNSVSCYMRTKGISEELATESVMNLIDETWKKMNKEKLGGSLFAKPFVETAINLARQSHCTYHNGDAHTSPDELTRKRVLSVITEPILPFERENLYFQGLEHHHHHH
B2: D345P: P. alba IspS variant (protein, UniProt Q50L36 38-595, looked up, variant D345P)
Isoprene synthase, …: CSVSTENVSFTETETEARRSANYEPNSWDYDYLLSSDTDESIEVYKDKAKKLEAEVRREINNEKAEFLTLLELIDNVQRLGLGYRFESDIRGALDRFVSSGGFDAVTKTSLHGTALSFRLLRQHGFEVSQEAFSGFKDQNGNFLENLKEDIKAILSLYEASFLALEGENILDEAKVFAISHLKELSEEKIGKELAEQVNHALELPLHRRTQRLEAVWSIEAYRKKEDANQVLLELAILDYNMIQSVYQRDLRETSRWWRRVGLATKLHFARDRLIESFYWAVGVAFEPQYSDCRNSVAKMFSFVTIIPDIYDVYGTLDELELFTDAVERWDVNAINDLPDYMKLCFLALYNTINEIAYDNLKDKGENILPYLTKAWADLCNAFLQEAKWLYNKSTPTFDDYFGNAWKSSSGPLQLVFAYFAVVQNIKKEEIENLQKYHDTISRPSHIFRLCNDLASASAEIARGETANSVSCYMRTKGISEELATESVMNLIDETWKKMNKEKLGGSLFAKPFVETAINLARQSHCTYHNGDAHTSPDELTRKRVLSVITEPILPFER
B3: D345Y: P. alba IspS variant (protein, UniProt Q50L36 38-595, looked up, variant D345Y)
Isoprene synthase, …: B2 Isoprene synthase, … with P308Y
B4: D345C: P. alba IspS variant (protein, UniProt Q50L36 38-595, looked up, variant D345C)
Isoprene synthase, …: B2 Isoprene synthase, … with P308C
B5: D345M: P. alba IspS variant (protein, UniProt Q50L36 38-595, looked up, variant D345M)
Isoprene synthase, …: B2 Isoprene synthase, … with P308M
B6: D345Q: P. alba IspS variant (protein, UniProt Q50L36 38-595, looked up, variant D345Q)
Isoprene synthase, …: B2 Isoprene synthase, … with P308Q
B7: D345G: P. alba IspS variant (protein, UniProt Q50L36 38-595, looked up, variant D345G)
Isoprene synthase, …: B2 Isoprene synthase, … with P308G
B8: D345I: P. alba IspS variant (protein, UniProt Q50L36 38-595, looked up, variant D345I)
Isoprene synthase, …: B2 Isoprene synthase, … with P308I
B9: L469L: SEL member with the wild type residue at site 469 (wild type codon substituted) (protein, UniProt Q50L36 38-595, looked up)
Isoprene synthase, …: B2 Isoprene synthase, … with P308D
B10: D345K: P. alba IspS variant (protein, UniProt Q50L36 38-595, looked up, variant D345K)
Isoprene synthase, …: B2 Isoprene synthase, … with P308K
B11: D345N: P. alba IspS variant (protein, UniProt Q50L36 38-595, looked up, variant D345N)
Isoprene synthase, …: B2 Isoprene synthase, … with P308N
B12: D345V: P. alba IspS variant (protein, UniProt Q50L36 38-595, looked up, variant D345V)
Isoprene synthase, …: B2 Isoprene synthase, … with P308V
B13: D345T: P. alba IspS variant (protein, UniProt Q50L36 38-595, looked up, variant D345T)
Isoprene synthase, …: B2 Isoprene synthase, … with P308T
B14: H515H: SEL member with the wild type residue at site 515 (wild type codon substituted) (protein, UniProt Q50L36 38-595, looked up)
Isoprene synthase, …: B2 Isoprene synthase, … with P308D
B15: D345A: P. alba IspS variant (protein, UniProt Q50L36 38-595, looked up, variant D345A)
Isoprene synthase, …: B2 Isoprene synthase, … with P308A
B16: D345S: P. alba IspS variant (protein, UniProt Q50L36 38-595, looked up, variant D345S)
Isoprene synthase, …: B2 Isoprene synthase, … with P308S
B17: D345E: P. alba IspS variant (protein, UniProt Q50L36 38-595, looked up, variant D345E)
Isoprene synthase, …: B2 Isoprene synthase, … with P308E
B18: D345W: P. alba IspS variant (protein, UniProt Q50L36 38-595, looked up, variant D345W)
Isoprene synthase, …: B2 Isoprene synthase, … with P308W
B19: D345L: P. alba IspS variant (protein, UniProt Q50L36 38-595, looked up, variant D345L)
Isoprene synthase, …: B2 Isoprene synthase, … with P308L

Experiment: DMAPP assay of site evaluation library (SEL) lysates with ELISA protein quantitation: specific activity ranked as performance index
Format: biochemical
Conditions: SEL analysis of P. alba IspS
Method: 1. Prepared Patch Plates from Glycerol Stock Plates. Using a V&S 96 pin Replication Tool, cultures were patched onto a LB Agar 35 CMP/50 Kan large patch plates from overnight glycerol stock plates. Plates were incubated at 30° C. overnight for 20 to 24 hr. Cultures can be stored at 4° C. for up to a week.
2. Prepared Overnight Growth Plates. 500 mL of LB 35 CMP/50 Kan media were prepared. 300 μL/well of LB 35 CMP/50 Kan media were dispensed into deep 96 well plates (VWR). Using a V&S Replication Tool, the patch inoculum was transferred into deep 96 well plate by touching the tool pins to respective patch and using a circular motion to coat the pins with inoculum. The media was inoculated by dipping the tool then shaking the pin within the well. The overnight growth plates were sealed using a Breathe-Easier Sealing Membrane (Diversified Biotech). The plates were incubated in a Vertiga Shaking Incubator at 30° C. with shaking at 800 rpm overnight for 16 to 18 hr.
3. Prepared Day Growth Plate. Deep 96 well plates were prepared by dispensing 588 μL/well of LB 35 CMP/50 Kan media. Overnight growth plates were removed from the incubator. Overnight cultures were diluted 50-fold and 12 μL of overnight culture were transferred to day growth plates containing 588 μL/well of LB media containing antiobiotics. Overnight growth plates were sealed with new Breathe-Easier Sealing Membranes. Cultures were incubated at 30° C. and 800 rpm for 2.5 hr. Frozen 12 mM IPTG (Sigma) vials were removed from −20° C. and placed in a hood to thaw.
4. OD600 Plate Read of Overnight, Induction, and Harvest. 150 μL 1×PBS were dispensed into 96 well Costar Read Plates (#9017). 50 μL of culture samples were transferred to Read Plates. The OD600 reading was recorded using a Spectramax Plate Reader (Molecular Devices).
5. Induction. Electronic multi-channel pipettors were prepared to dispense 4×20 μL/well of IPTG (if 4× replicates). The multi-dispense option in the electronic pipettor was adjusted if more replicates was necessary. Thawed 12 mM IPTG was poured into 50 mL or 100 mL sterile reservoirs. 20 μL/well of IPTG into each 600 μL/well culture. Overnight growth plates were resealed. Cultures were incubated at 30° C. and 800 rpm for 4 hr. OD600 readings of plates were recorded according instructions above.
6. Harvest. 400 μL of induced culture were transferred to 800 μL Grenier storage plates. Plates were centrifuged at 3300 rpm for 20 min at 2° to 8° C. in a low speed benchtop centrifuge. Supernatants were discarded, pellets should stay in the conical bottom well. Residual supernatants were slapped out onto a paper towel on the benchtop. Plates were sealed with an aluminum foil membrane (Beckman-Coulter). Plates were covered with a plastic plate lid if available. Storage plates were labeled accordingly and stored frozen at −80° C.
Plates containing induced cell pellets were removed from the −80° C. freezer and allowed to thaw on the benchtop for 30 minutes prior to lysis. 200 μl of lysis buffer (50 mM Tris pH 8, 25 mM MgCl2, 74 μg/ml DNase I, 250 U/ml lysozyme, 0.1% Tween 20, 0.5 mM PMSF) was added to each pellet, and plates were incubated on an Eppendorf Thermomixer at 25° C. for 30 minutes at 1200 rpm. After lysis, plates were centrifuged at 3450 rpm for 15 minutes at 4° C. Supernatants were then removed and diluted 10-fold prior to DMAPP assay. 80 μl of the diluted supernatant was added to 20 μl of the DMAPP working stock (20 mM DMAPP in 0.1 M Phosphate Buffer pH 8.2, DMAPP triammonium salt, Cayman chemicals) in a Zinsser glass block. Blocks were then sealed with aluminum sealing membranes, and incubated in Thermomixers at 25° C. for 30 minutes at 450 rpm. Reactions were stopped by incubating blocks on Thermomixers at 70° C. for 12 minutes at 450 rpm. GC-MS was then used for headspace measurements to calculate the amount of isoprene produced by each lysates.
Headspace Assay. […]

Molecule | isoprene synthase activity of variants relative to parent, in words
B1 | improved activity; also recorded: high performing

Same assay, conditions: primary SEL screen; activity on DMAPP per unit weight relative to the parental molecule (parent = 1)

Molecule | performance index
B1 | 2.99
B2 | 0.35
B3 | 0.84
B4 | 0.43
B5 | 0.43
B6 | 0.56
B7 | 0.55
B8 | 0.73
B9 | 0.96
B10 | 0.69
B11 | 0.58
B12 | 0.51
B13 | 0.56
B14 | 0.81
B15 | 0.50
B16 | 0.41
B17 | 0.61
B18 | 0.46
B19 | 0.65

Experiment: Specific activity measurement of purified isoprene synthase variants (4 mM DMAPP, 30 C, GC-MS headspace)
Format: biochemical
Conditions: 50 mM NaCl, 50 mM Tris pH = 8, 30° C.
Method: 1. Initial Purification—Resuspend the pellet in 3 ml of fresh lysis buffer. Break cells by passing them through the French Press using the small cylinder. Centrifuge samples for 1 hour at 30,000×G and collect the supernatant. Retain pellet in order to test for presence of insoluble protein. Pre equilibrate 0.5 mL Ni Sepharose 6 Fast Flow resin (Amersham) in a 20 ml disposable column with 10 mL of Ni wash buffer. Add protein to column and shake for 60 min at 4 C to bind protein. Elute protein with 2.5 mL Ni elution buffer.
2. Buffer Exchange—Equilibrate a PD-10 column (GE Healthcare) with 25 mL of PD-10 buffer. Load protein on to column and elute with 3.5 mL of PD-10 buffer.
10 uL of purified enzyme was incubated with 4 mM DMAPP, 50 mM MgCl2 in a buffer containing 50 mM Tris and 50 mM NaCl (pH=8) to a final volume of 100 uL for 15 min. at 30 C in gas tight 2 mL vials. Reactions were terminated with the addition of 100 uL of […] EDTA, pH=8. Samples were analyzed by GC-MS to determine the concentration of isoprene in the headspace of the vials. All specific activity measurements were performed in triplicate.
Protein concentration was determined by measuring the absorbance of each protein solution at 280 nm on a Helwlett Pachard 8453 UV-Vis spectrophotometer and converting the absorbance to protein concentration using the extinction coefficient as determined on the Expasy website (Gasteiger E., Hoogland C., Gattiker A., Duvaud S., Wilkins M. R., Appel R. D., Bairoch A.; Protein Identification and Analysis Tools on the ExPASy Server; (In) John M. Walker (ed): The Proteomics Protocols Handbook, Humana Press (2005). pp. 571-607). The protein concentrations of isoprene synthase variants assayed for KM and kcat determination were verified by comparative gel electrophoresis of a dilution series of each protein (FIG. 61).

Molecule | S.A. [nmol/mg/min]
B1 | 170 ± 30

Same assay, conditions: 50 mM NaCl, 50 mM Tris pH = 8, 30° C., ratio to WT

Molecule | Variant S.A./WT S.A.
B1 | 0.4
